Results on one protein are retold here after paper PMC1762332, “Catalases Are NAD(P)H-Dependent Tellurite Reductases” (PLoS ONE, 2006).

Substrate in this series: O=[Te](O)O
Kind of series: purified protein. The conditions noted are these: NADPH 10 mM (50 µl of 0.2 M in 1 ml), Tris-HCl pH 8.0 (50 mM), aerobic.

B1: bovine liver catalase (Bos taurus) (protein)
chain: ADNRDPASDQMKHWKEQRAAQKPDVLTTGGGNPVGDKLNSLTVGPRGPLLVQDVVFTDEMAHFDRERIPERVVHAKGAGAFGYFEVTHDITRYSKAKVFEHIGKRTPIAVRFSTVAGESGSADTVRDPRGFAVKFYTEDGNWDLVGNNTPIFFIRDALLFPSFIHSQKRNPQTHLKDPDMVWDFWSLRPESLHQVSFLFSDRGIPDGHRHMNGYGSHTFKLVNANGEAVYCKFHYKTDQGIKNLSVEDAARLAHEDPDYGLRDLFNAIATGNYPSWTLYIQVMTFSEAEIFPFNPFDLTKVWPHGDYPLIPVGKLVLNRNPVNYFAEVEQLAFDPSNMPPGIEPSPDKMLQGRLFAYPDTHRHRLGPNYLQIPVNCPYRARVANYQRDGPMCMMDNQGGAPNYYPNSFSAPEHQPSALEHRTHFSGDVQRFNSANDDNVTQVRTFYLKVLNEEQRKRLCENIAGHLKDAQLFIQKKAVKNFSDVHPEYGSRIQALLDKYNEEKPKNAVHTYVQHGSHLSAREKANL
Consider B1, for which the Km was 0.9 mM.
